Results from US20250051449A1 (SURFACE ONCOLOGY, published 2025).
Changes are numbered by the printed parent chain. Blank lines part the entries; values can stand above or below the binder they belong to.

Legend:
[1] = biological target: T1, human CD112R expressed on Jurkat cells (human, UniProt Q6DKI7 1-326); assay: flow cytometry, wild type Jurkat cells, 0.63 ug/mL antibody
T1 construct: whole, on cells; Used for both Jurkat-CD112R OE cells and wild type Jurkat cells; which cells is said under assay; also called PVRIG; Jurkat-CD112R OE
T1 sequence (looked up): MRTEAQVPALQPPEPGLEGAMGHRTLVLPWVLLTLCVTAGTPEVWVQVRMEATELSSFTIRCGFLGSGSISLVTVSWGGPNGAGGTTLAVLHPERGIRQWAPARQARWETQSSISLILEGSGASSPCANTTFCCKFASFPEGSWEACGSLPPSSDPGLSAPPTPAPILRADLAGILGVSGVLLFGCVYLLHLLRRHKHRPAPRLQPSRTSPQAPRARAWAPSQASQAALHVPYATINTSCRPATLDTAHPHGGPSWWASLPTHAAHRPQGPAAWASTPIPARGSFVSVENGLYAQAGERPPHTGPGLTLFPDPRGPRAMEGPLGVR
Description: The ability of anti-CD112R antibodies to bind to CD112R expressed on cells was evaluated. 1×10⁵ Jurkat cells (acute T cell leukemia cell line, ATCC #TIB-152) that were either wild type or engineered to over-express human CD112R (Jurkat-CD112R OE) were added to each well of a 96-well V bottom plate and stained with either anti-CD112R antibodies or an IgG1 isotype control (0.63 μg/mL) for 1 hour at 4° C. Cells were washed twice with PBS+2% FCS and resuspended with Alexa Fluor® 647 anti-human IgG Fc antibody (Biolegend, Cat #409320) diluted 1:100 in PBS+2% FCS and incubated at 4° C. for 30 minutes. Cells were subsequently washed twice and resuspended in PBS+2% FCS. Cellular data was acquired using a LSRFortessa X-20 (BD Biosciences) and analyzed with FlowJo software (Tree Star).

[2] = biological target: T2, mouse CD112R-hIgG4 fusion protein (mouse; human); assay: ELISA: coated antibody, titrated mouse CD112R-hIgG4, anti-IgG4 HRP
T2 construct: also called soluble mouse CD112R; soluble murine CD112R
Description: The ability of anti-CD112R antibodies to bind to soluble mouse CD112R was evaluated by ELISA. Briefly. 96 well Nunc Maxisorp plates were coated with 1 μg/mL of anti-CD112R antibodies or isotype control (Biolegend. Cat #403502) in PBS overnight at 4° C. […] After blocking, plates were washed 6× with PBST. Next. 100 μL of a mouse CD112R-hIgG4 fusion protein in PBS+1% BSA was added at a final starting concentration of 10 μg/mL, with 4-fold serial dilutions. Plates were incubated at room temperature for 1.5 hours. Next plates were washed 6× with PBST and then incubated with anti-IgG4 HRP (Thermo Fisher, Cat #MA1-33437) in 100 μL for 1 hour at room temperature. Plates were then washed 6× with PBST and developed with TMB substrate (Life Technologies. Cat #002023). The reaction was stopped with an equal volume of stop solution (Life Technologies. Cat #SS04). Absorbance at 450 nm (O.D. 450) was measured on a SpectraMax plate reader.

[3] = biological target: T2, mouse CD112R-hIgG4 fusion protein; assay: blocking ELISA: coated mouse CD112, antibody plus mouse CD112R-hIgG4 (2 ug/mL)
Description: The ability of species cross reactive anti-CD112R antibodies to block mouse CD112R binding to mouse CD112 was evaluated by ELISA. Briefly. 96 well Nunc Maxisorp plates were coated with 1 μg/mL of mouse CD112 (Sino Biological. Cat #50318-M08H) in PBS overnight at 4° C. […] After blocking, plates were washed 6× with PBST. Next. 50 μL of anti-CD112R antibodies or isotype control (Biolegend. Cat #403502) in PBS+1% BSA were added at a final starting concentration of 40 μg/mL, with 2-fold serial dilutions. 50 μL of a mouse CD112R-hIgG4 fusion protein was also added to each well at a final concentration of 2 μg/mL. Plates were incubated at room temperature for 1.5 hours. Next plates were washed 6× with PBST and then incubated with anti-IgG4 HRP (Thermo Fisher, Cat #MA1-33437) in 100 μL for 1 hour at room temperature. Plates were then washed 6× with PBST and developed with TMB substrate (Life Technologies. Cat #002023). The reaction was stopped with an equal volume of stop solution (Life Technologies. Cat #SS04). Absorbance at 450 nm (O.D. 450) was measured on a SpectraMax plate reader.
Results are depicted in FIG. 19 and Table 11. […] Percent inhibition was calculated as [100−((test sample O.D. 450/Max O.D. 450)*100%)] Max O.D. 450 was defined as absorbance at 450 nm in the absence of antibody.

gMFI (fold increase over isotype) [1]: 4.2 fold increase over isotype
EC50 [2]: 0.181 µg/mL
mouse CD112/CD112R blocking ELISA max inhibition (%) [3]: 88%
B1: Antibody 46 (antibody, V domains shown)
VH: EVQLVESGGGLVQPGRSLRLSCTASGFTFGDYAMSWFRQAPGKGLEWVGFIGSKAYGGTTEYTASVKGRFTISRDGSKSIAYLQMNSLKTEDTAVYYCARGPRRYTYGMDVWGQGTTVTVSS
VL: DIQMTQSPSSLSASVGDRVTITCRASQSISSYLNWYQQKPGKAPKLLIYAASSLQSGVPSRFSGSGSGTDFTLTISSLQPEDFATYYCQQSSTPLTFGGGTKVEIK
notes: in the mouse tumor studies it was used as mouse IgG2a; also called antibody clone number 46; clone 46

gMFI (fold increase over isotype) [1]: 2.5 fold increase over isotype
EC50 [2]: 0.27 µg/mL
mouse CD112/CD112R blocking ELISA max inhibition (%) [3]: 0%
B2: Antibody 32 (antibody, V domains shown)
VH: QVQLVQSGAEVKKPGSSVKVSCKASGGTFSSYAISWVRQAPGQGLEWMGGIIPISGTANYAQKFQGRVTITADESTSTAYMELSSLRSEDTAVYYCARDTGRGYTRHFWFDPWGQGTLVTVSS
VL: B1 VL with S92D, T93I, P94L, L95Y
notes: Purified as IgG; compared with an IgG1 isotype control and detected with anti-human IgG Fc; also called antibody clone number 32; parent clone 32

gMFI (fold increase over isotype) [1]: 3.8 fold increase over isotype
EC50 [2]: 0.0242 µg/mL
mouse CD112/CD112R blocking ELISA max inhibition (%) [3]: 20.3%
B3: Antibody 34 (antibody, V domains shown)
VH: B2 VH with Y32A, I52F, T57H
VL: B1 VL with S92D, T93I, P94L, L95Y
notes: Purified as IgG; compared with an IgG1 isotype control and detected with anti-human IgG Fc; also called antibody clone number 34; clone 34

gMFI (fold increase over isotype) [1]: 3.4 fold increase over isotype
EC50 [2]: 0.0383 µg/mL
mouse CD112/CD112R blocking ELISA max inhibition (%) [3]: 28.3%
B4: Antibody 33 (antibody, V domains shown)
VH: B2 VH with S30G, S31N, S55P, T57I
VL: B1 VL with S92D, T93I, P94L, L95Y
notes: Purified as IgG; compared with an IgG1 isotype control and detected with anti-human IgG Fc; also called antibody clone number 33; clone 33

gMFI (fold increase over isotype) [1]: 3.5 fold increase over isotype
EC50 [2]: 0.0251 µg/mL
mouse CD112/CD112R blocking ELISA max inhibition (%) [3]: 41.6%
B5: Antibody 36 (antibody, V domains shown)
VH: B2 VH with S30A, S31T, I52F, I54L
VL: B1 VL with S92D, T93I, P94L, L95Y
notes: Purified as IgG; compared with an IgG1 isotype control and detected with anti-human IgG Fc; also called antibody clone number 36; clone 36

gMFI (fold increase over isotype) [1]: 3.3 fold increase over isotype
EC50 [2]: 0.0215 µg/mL
mouse CD112/CD112R blocking ELISA max inhibition (%) [3]: 24.2%
B6: Antibody 35 (antibody, V domains shown)
VH: B2 VH with Y32A, G50N, S55V, T57I
VL: B1 VL with S92D, T93I, P94L, L95Y
notes: Purified as IgG; compared with an IgG1 isotype control and detected with anti-human IgG Fc; also called antibody clone number 35; clone 35

gMFI (fold increase over isotype) [1]: 4.5 fold increase over isotype
EC50 [2]: 0.412 µg/mL
mouse CD112/CD112R blocking ELISA max inhibition (%) [3]: 85.7%
B7: Antibody 58 (antibody, V domains shown)
VH: B1 VH with A55F, T59E
VL: B1 VL
notes: Purified as IgG; compared with an IgG1 isotype control and detected with anti-human IgG Fc; also called antibody clone number 58; clone 58
